Consider one molecule from publication PMC8954794, “NMR Structure and Biophysical Characterization of Thermophilic Single-Stranded DNA Binding Protein from Sulfolobus Solfataricus”.

This data set addresses T1, SsoSSB1-114 (Sulfolobus solfataricus, UniProt Q97W73 1-114).
T1 sequence: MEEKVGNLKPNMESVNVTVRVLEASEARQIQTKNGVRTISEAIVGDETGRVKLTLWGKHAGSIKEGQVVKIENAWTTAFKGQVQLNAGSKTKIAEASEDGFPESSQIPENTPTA
In words: ITC; 25 C; n = 1.009; Buffer A: 100 mM NaCl, 20 mM MES pH 6.5; ITC at 25 C (500 uM dA15 into 50 uM protein); NMR with 10% D2O at 25 and 50 C (SsoSSB12-114 at 25 C only). The settings on record: protein: recombinant; tags: C-terminal TEV-His6 vector; single strand.

By Kd is commonly meant the concentration at which binding is half-saturated. Turning to AAAAAAAAAAAAAAA (ssDNA) [dA(15)], the Kd was 1750 nM.
